Like-named read-outs stand apart in the source and are kept apart here.
What was measured:
Experiment in all cases: cell-based or functional assay
human IL-6Rα = target: T1, human IL-6Rα (human, UniProt P08887 20-358)
T1 sequence (looked up): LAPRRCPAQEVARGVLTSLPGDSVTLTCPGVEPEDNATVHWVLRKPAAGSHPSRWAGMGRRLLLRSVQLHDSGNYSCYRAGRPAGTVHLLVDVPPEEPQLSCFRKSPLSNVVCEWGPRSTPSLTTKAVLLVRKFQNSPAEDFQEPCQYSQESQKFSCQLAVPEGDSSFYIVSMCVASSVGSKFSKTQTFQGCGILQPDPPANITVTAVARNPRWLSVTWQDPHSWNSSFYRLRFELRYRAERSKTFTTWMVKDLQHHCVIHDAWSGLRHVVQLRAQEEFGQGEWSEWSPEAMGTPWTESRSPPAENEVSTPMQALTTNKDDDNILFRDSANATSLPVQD

[1] = target: T2, cell surface IL-6 receptor (TF-1 cells) (human, UniProt P08887 20-468)
T2 sequence (looked up): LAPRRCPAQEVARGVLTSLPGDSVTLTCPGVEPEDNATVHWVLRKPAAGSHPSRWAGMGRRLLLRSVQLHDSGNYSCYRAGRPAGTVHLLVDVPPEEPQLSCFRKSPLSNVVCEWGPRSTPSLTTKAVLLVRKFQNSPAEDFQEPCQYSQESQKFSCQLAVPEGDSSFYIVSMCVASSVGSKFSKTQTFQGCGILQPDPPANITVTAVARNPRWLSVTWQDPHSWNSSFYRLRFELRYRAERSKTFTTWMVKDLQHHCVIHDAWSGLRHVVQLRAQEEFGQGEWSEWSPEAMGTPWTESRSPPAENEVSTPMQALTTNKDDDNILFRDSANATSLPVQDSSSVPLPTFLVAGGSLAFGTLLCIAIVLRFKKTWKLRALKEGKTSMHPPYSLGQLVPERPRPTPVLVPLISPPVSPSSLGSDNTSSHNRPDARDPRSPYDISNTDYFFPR

[2] = target: T2, cell surface IL-6 receptor (TF-1 cells); remark: listed apart in the source

B1: tocilizumab (antibody, V domains shown)
VH: QVQLQESGPGLVRPSQTLSLTCTVSGYSITSDHAWSWVRQPPGRGLEWIGYISYSGITTYNPSLKSRVTMLRDTSKNQFSLRLSSVTAADTAVYYCARSLARTTAMDYWGQGSLVTVSS
VL: DIQMTQSPSSLSASVGDRVTITCRASQDISSYLNWYQQKPGKAPKLLIYYTSRLHSGVPSRFSGSGSGTDFTFTISSLQPEDIATYYCQQGNTLPYTFGQGTKVEIKR
With B1 as the binder, how does the “IC50, IL-6 trans-signaling (MCP-1 secretion by HUVECs)” value (human IL-6Rα) read?
Its value is roughly 5 nM.

What about the “IC50, IL-6 dependent growth of TF-1 cells” value [1] of the same binder?
Its value is 0.41 nM.

What about the “IC50, IL-6 dependent growth of TF-1 cells” value [2] of the same binder?
The value was 0.3 nM.
